Data taken from US20230174617A1.

Tests used:
[1] = target: recombinant human neonatal Fc receptor (rhFcRn, R&D systems) (human) (UniProt P55899); assay: SPR, rhFcRn on CM5, analyte in PBST pH 6.0, steady state affinity
[2] = target: recombinant human neonatal Fc receptor (rhFcRn, R&D systems) (human) (UniProt P55899); assay: SPR (Biacore 8K), rhFcRn amine-coupled on CM5, analyte in PBST pH 6.0, steady state affinity

Chain of recombinant human neonatal Fc receptor (rhFcRn, R&D systems) (human) (P55899 24-297 limits assumed, chain 1 of 2): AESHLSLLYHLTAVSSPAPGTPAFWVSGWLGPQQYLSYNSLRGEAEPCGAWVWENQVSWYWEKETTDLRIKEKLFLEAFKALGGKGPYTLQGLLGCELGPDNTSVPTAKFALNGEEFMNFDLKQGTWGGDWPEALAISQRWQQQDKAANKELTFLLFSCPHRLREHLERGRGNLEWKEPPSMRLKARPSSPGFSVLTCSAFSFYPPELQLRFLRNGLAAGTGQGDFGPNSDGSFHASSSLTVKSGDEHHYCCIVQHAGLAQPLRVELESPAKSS
Chain of recombinant human neonatal Fc receptor (rhFcRn, R&D systems) (human) (chain, as listed by the source limits assumed, chain 2 of 2): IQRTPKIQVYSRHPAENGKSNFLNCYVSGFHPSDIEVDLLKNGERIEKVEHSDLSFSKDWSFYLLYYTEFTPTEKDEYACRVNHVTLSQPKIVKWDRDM

Substance	Kd [1] [nM]	Kd [2] [nM]
Rituximab (antibody)	2390	
dulaglutide (trade name Trulicity) (Fc fusion)		2090
